Experimental data as given in the nanobody polyreactivity screen of Harvey et al. (2022).

Experiment: yeast display, Sf9 membrane polyspecificity reagent, FACS + sequencing; frameworks hold sequencing errors
Summary of the method: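 In a synthetic yeast display library (Saccharomyces cerevisiae BJ5465), nanobody expression was induced with galactose for 36–48 hours. FACS gates were set low and high (top ~1%) using anti-HA fluorescence for expression and streptavidin fluorescence for binding of the Sf9 membrane reagent. Each polyreactivity label is drawn from the gate of origin.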
In the case of “HVQLVESGGGLVQAGGSLRLSCAASGSTFYRNAMGWYREAPGKEWEFVADITLGGGSTYYADSVKGRFTISRDNAKNTVYLQMNSLKPEDTAVYYCAVDYWQLNYDYWGQGTQVTVSS”, the “polyreactivity (PSR sort gate)” value is reported as “low polyreactivity”. In the case of “QVQLVESGGGLVQAGGSLRLSCAASGSIFDHTNAMGSYRQAPGKERELVAAITSGSSTNYADSVKGRFTISRDNAKKTVDLQMNSLKPEDTAVYYCNADRFHSGIFDYWGQGTQVTVSS”, the “polyreactivity (PSR sort gate)” value is reported as “low polyreactivity”. With “QVQLVESGGGLVQAGGSLRLSCAASGSTFSYYAMGWDRQAPWKERELVAAITAGGGSTYYADSVKGRFTISRDNAKNTVYLQMNSLKPEDTAVYYCNADQIFGPALNLWKLDYWGQGTQVTVSS” the “polyreactivity (PSR sort gate)” value was “low polyreactivity”. For “QVQLVESGGGLVQAGGSLRLSSAASGFTSSRNAMGWYRQAPGKERELVATISSGGDTYYADSVKGRFTISRDNAKNTVYLQMNSLKPEDTAVYYCATDRAERTGYTRYVKTYNYWGQGTQVTVSS”, the “polyreactivity (PSR sort gate)” value was “low polyreactivity”. With “QVQLVESGGGLVQAGGSLRLSCAASGFTFRANGMGWYRQAPGKERELVATITSGGTTNYADSVKGRLTISRDNAKNTVYLQMNSLKPEDTAVYYCNAGSVSDRQMDYWGQGTQVTVSS” the “polyreactivity (PSR sort gate)” value was “low polyreactivity”. For “QVQLVESGGGLVQEGGSLRLSCAASGRTFYINGLGWYRQAPGKEREFVASITWRGGRTYYADSVKGRFTISRDNAKNTVYLQMNSLKPEDTAVYYCNAVGLGGRATSRWYTHYYWGQGTQVTVSS”, the “polyreactivity (PSR sort gate)” value was “high polyreactivity”. For “QVQLVESGGGLVQAGGSLRLSCAASGRTYIVNVMGWYRQAPGKERELVAAINWSTGRTYYADSVKGRFTISRDNAKNTVYLQMNSLKPEDTAVYYCAAEEFDSFWWGYYEMDYWGQGTQVTVSS”, the “polyreactivity (PSR sort gate)” value was “high polyreactivity”. For “QVQLVESAVCLVQAGVSLRLSCAASGIIFDYNAMGWYRQAPGKDREVVAAITSTDNTNYADSVKGRFTISRDNAKNTVYLQMNSLKPEDTAVYYCNTDYWLSVVYAMDYWGQGTQVTVSS”, the “polyreactivity (PSR sort gate)” value was “low polyreactivity”. In the case of “QVQLVESGGGIVQAGGSLRLSCAASGLSRGVNVMGLYRQAPGKERELVAAISGAGRTYYADSVKGRFTISRDNAKNTVFLQMNSLKPEDTAVYYCASVRRRLSLTYDYWGQGTQVTVSS”, the “polyreactivity (PSR sort gate)” value is reported as “high polyreactivity”. For “QVQLVESGGGLVQAGGSLRLSRAASGITFGFNAMGWYRQAPGKERELVAAITWSVGRTYYADSVKGRFTISRDNAKNTVYLQMNSLKPEDTAVYYCAKVFEAGDDYFAYDYWGQGTQVTVSS”, the “polyreactivity (PSR sort gate)” value was “low polyreactivity”. With “QVQLVESGGGLVQAGGSLRVSCAASGSTFCSNAKGWYRQAPGKERELVAAISSGGSTNYADSVKGRFTISRDNAKNTVYLQMYSLKPEDTAVYYCAADRSPEYYWGQGTQVTVSS” the “polyreactivity (PSR sort gate)” value was “low polyreactivity”. For “QVQLVESGGGLVQAGGSLRLSCAASGSTFYTNAMGWYIQAPGKERELVAAISRGGITYYADSVKGRFTISRDNAKNTVYLQMNSLKPEDTAVYYCNTQIVTEYDYWGQDTQVTVSS”, the “polyreactivity (PSR sort gate)” value was “low polyreactivity”. In the case of “QVQLVESGGGLVQAGGSLRLSCAASGSIFLGNAMGWYRQAPGKESELVAAISSITGRTYYADSVKGRFTISRDNAKNTVYLQMNSLKPEDTAVYYCNKVKRSFIVNTDDYWGQGTQVTVSS”, the “polyreactivity (PSR sort gate)” value is reported as “high polyreactivity”. With “QVQLVESGGGLVQAGGSLRLSCAASGSIFIFNAMVWYRQAPGKEREFVARIRRDSSTYYADSVKGRFTISRDNAKNTVYLQMNSLKPEDTAVYYCAAKRVYRRVELNSWGQGTQVTVSS” the “polyreactivity (PSR sort gate)” value was “low polyreactivity”. In the case of “QVQLVESGGGLVQAGGSLRLSCAASGSIFTCNAMGWYRQAPGKERELVAAISYISGGTYYADSVKGRFTISRDNAKNTVYLQMNSLKPEDTAVYYCAAVVYYYTYHYWGQGTQGTVSS”, the “polyreactivity (PSR sort gate)” value is reported as “low polyreactivity”. For “QVQLVESGGGLVQAGGSLRLSCAASGSIFRYYAMGWYRQAPGKERELVAAIRWSGGSTYYADSVKGRFTISRDNAKNTVYLQMNSLKPEDTAVYYCAARVGYRGSRQYSSYTLVDYWGQGTQVTVSS”, the “polyreactivity (PSR sort gate)” value was “high polyreactivity”. With “QVQLVESGGGLVQAGGSLRLSCAASGIICVKYTMGWYRQAPGKERELVAAISRSGGSTYYADSVKGRFTISRDNAKNTVYLQMNSLKPEDTAVYYCNAVSRKVYPGPMDYWGHGTQVTVSS” the “polyreactivity (PSR sort gate)” value was “high polyreactivity”. With “QVQLVESGGGLVQAGGSLRLSCAASGSTYNAMGWYRQAPGKEREFVAAISWGGGSTYYADSVKGRFTISRDNAKNTVYLQMNSLKPEDTAVYYCAKTPNYRIRHDYWGQGTQVTVSS” the “polyreactivity (PSR sort gate)” value was “low polyreactivity”. For “QVQLVESGGGLVQAGGSLRLSCAASGRTFYYYAMGWYRQAPGKEREFVAAIRFSGGNTYYADSVKGRFTISRDNAKNTVYLQMNSLKPVDTAVYYCAARRLLYKYWTGGPYDYWGQGTQVTVSS”, the “polyreactivity (PSR sort gate)” value was “high polyreactivity”. In the case of “QVKLVESGGGLVQAGGSLRLSCAASGSTLRYYGMGWYRQAPGKERELVAAISSGGITNYADSVKGRFTISRDNAKNTVYLQMNSLKPEDTAVYYCAAYYTYTWFGYWGQGTQVTVSS”, the “polyreactivity (PSR sort gate)” value is reported as “low polyreactivity”. For “QVQLVESGVGLVQAGGSLRLSCAASGITFNVNAMGWYRQAPGKERELVARITTSGGSTSYADSVKGRFTISRDNAKNTVYLQMNSLKPEDTAVYYCAADRARYYSEYDYWGQGTQVTVSS”, the “polyreactivity (PSR sort gate)” value was “low polyreactivity”. With “QVQLVESGGGLVQAGGSLRFSCAASGRTLGYYTMGWYRQAPGKESELVATITPGGSTNYADSVKGRFTISRDHAKNTVYLQMNRLKPEDTAVYYCAKKKRRGYGYDYWGQGTQVTVSS” the “polyreactivity (PSR sort gate)” value was “high polyreactivity”. For “QVQLVESGGGLVQAGGSLRLSCAASGRTFDHNAMGWYRQAPGKERELVAAITSRGGSTYYADSVKGRFTISRDIAKYTGYLQMNSLKPEDTAVYYCAARKRSVYGTEYDYLGQGTQVTVSS”, the “polyreactivity (PSR sort gate)” value was “high polyreactivity”. With “QVQHVESGGGLVQAGGSLRLSCAASGRTFAKYAMRWSRQAPGKERELVAAIRWSGGSTYYADSVKGRFTISRDNAKNTVYLQMNSLKPEDTAVYYCAARPALWGRYRGYDYWGQGTQVTVSS” the “polyreactivity (PSR sort gate)” value was “high polyreactivity”. In the case of “QVQLVESAGGLVQAGGSLRLSCAASARTFGAYAMGWYRQAPGNERELVATITVSGGSTYYADSVKGRFTISRENAKNTVYLPMNSLKPEDTAVYYCAAAYDWWQFYSWTIAYDYWGQGTQVTVSS”, the “polyreactivity (PSR sort gate)” value is reported as “low polyreactivity”. In the case of “QVQLVESGGGLVQAGGSLRLSCAASGRTFRYYAMGWYRPAPGKERELVAAINWSGGTTYYADSVKGRFTISRDNAKNTVYLQMNSLKPEDTAVYYCAAVYGYPSTSRYDYWGQGTQVTVSS”, the “polyreactivity (PSR sort gate)” value is reported as “high polyreactivity”. With “QVQLVESGGGFVQAGGSLRLSCAASGFTFTSYAMGWYRQAPGKEREFVAAIRRSGSGTNYADSVKGRFTISRDNAKNTVYLQLNSLKPEDTAVYYCAAEQWGWYWYDYWGQGTQVTVSS” the “polyreactivity (PSR sort gate)” value was “high polyreactivity”. In the case of “QVQLLESGGGLVQAGGSLRLSCAASGSIFSYNAMGWYRQAPGTERELVAAITSGDSTNYADSVKGRFTISRDNAKNTVYLQMNSLKPEDTAVYYCAADPVLPAFGYVGTSLGYYWGQGTQVTVSS”, the “polyreactivity (PSR sort gate)” value is reported as “low polyreactivity”. With “QVQLVESGGCLVQAGGSLRLSCAASGRTFYTYAIGWYRQAPGQERELVAGIRTGGGSTYYADSVKGRFTISRDNAKNTVYLQMNSLKPEDTAVYYCAADTYDGYDYWGQGTQVTVSS” the “polyreactivity (PSR sort gate)” value was “low polyreactivity”. For “QVQLVESGGGLVQAGGSLRLSCAASGFTIRYYAMGWYRQAPGKERELVAAIDWSGGSTYYADSVKGRFTISRDNAKNTVYLQINSLKPEDTAVYYCNVDFYDLYVYLWYVDYDYWGQGTQVTVSS”, the “polyreactivity (PSR sort gate)” value was “high polyreactivity”. With “QVQLVESGGGLVQAGGILRLSCAASGFTFTYYAMGWYIQAPGKERELVAAITRDDSTNYADSVKGRFTISRDNAKNTVYLQMNSLKPEDTAVYYCAADSWYPSYGYWGQGTQVTVSS” the “polyreactivity (PSR sort gate)” value was “low polyreactivity”. In the case of “QVQLVESGGGLVQAGGSLRLSCAASGFTFRSNMGWYRQAPGKEREFVAAITKSGGSTYYADSVKGRFTISRDNAKNTVYLQMNSLKPEDTAVYYCAARARYTTGYRIIYDYWGQGSQVTVSS”, the “polyreactivity (PSR sort gate)” value is reported as “high polyreactivity”.
